Data reported in PMC3154093 (Science (New York, N.Y.), 2011).

Legend:
[1] = target: Neurocan-alkaline phosphatase (UniProt P55066 23-1268, chondroitin sulfate glycosaminoglycan chains); assay: solid-phase binding assay
glypican-2-AP = target: T1, glypican-2-AP (UniProt Q8BKV1 22-556, heparan sulfate glycosaminoglycan chains); assay: solid-phase binding assay
T1 sequence (looked up): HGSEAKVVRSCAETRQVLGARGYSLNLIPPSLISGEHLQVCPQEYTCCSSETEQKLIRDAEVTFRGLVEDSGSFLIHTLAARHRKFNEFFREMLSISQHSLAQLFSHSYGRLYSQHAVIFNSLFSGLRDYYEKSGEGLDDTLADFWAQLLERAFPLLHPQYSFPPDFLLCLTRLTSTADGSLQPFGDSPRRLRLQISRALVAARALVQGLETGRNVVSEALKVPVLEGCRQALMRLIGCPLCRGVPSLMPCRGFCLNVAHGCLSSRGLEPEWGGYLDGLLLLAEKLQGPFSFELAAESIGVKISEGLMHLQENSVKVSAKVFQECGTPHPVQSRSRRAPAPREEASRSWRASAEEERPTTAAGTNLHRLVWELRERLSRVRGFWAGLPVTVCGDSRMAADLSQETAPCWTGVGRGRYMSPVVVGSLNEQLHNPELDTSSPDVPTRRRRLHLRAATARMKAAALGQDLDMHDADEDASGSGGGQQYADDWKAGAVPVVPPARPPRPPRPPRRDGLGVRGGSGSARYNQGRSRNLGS

Chain of Neurocan-alkaline phosphatase (P55066 23-1268): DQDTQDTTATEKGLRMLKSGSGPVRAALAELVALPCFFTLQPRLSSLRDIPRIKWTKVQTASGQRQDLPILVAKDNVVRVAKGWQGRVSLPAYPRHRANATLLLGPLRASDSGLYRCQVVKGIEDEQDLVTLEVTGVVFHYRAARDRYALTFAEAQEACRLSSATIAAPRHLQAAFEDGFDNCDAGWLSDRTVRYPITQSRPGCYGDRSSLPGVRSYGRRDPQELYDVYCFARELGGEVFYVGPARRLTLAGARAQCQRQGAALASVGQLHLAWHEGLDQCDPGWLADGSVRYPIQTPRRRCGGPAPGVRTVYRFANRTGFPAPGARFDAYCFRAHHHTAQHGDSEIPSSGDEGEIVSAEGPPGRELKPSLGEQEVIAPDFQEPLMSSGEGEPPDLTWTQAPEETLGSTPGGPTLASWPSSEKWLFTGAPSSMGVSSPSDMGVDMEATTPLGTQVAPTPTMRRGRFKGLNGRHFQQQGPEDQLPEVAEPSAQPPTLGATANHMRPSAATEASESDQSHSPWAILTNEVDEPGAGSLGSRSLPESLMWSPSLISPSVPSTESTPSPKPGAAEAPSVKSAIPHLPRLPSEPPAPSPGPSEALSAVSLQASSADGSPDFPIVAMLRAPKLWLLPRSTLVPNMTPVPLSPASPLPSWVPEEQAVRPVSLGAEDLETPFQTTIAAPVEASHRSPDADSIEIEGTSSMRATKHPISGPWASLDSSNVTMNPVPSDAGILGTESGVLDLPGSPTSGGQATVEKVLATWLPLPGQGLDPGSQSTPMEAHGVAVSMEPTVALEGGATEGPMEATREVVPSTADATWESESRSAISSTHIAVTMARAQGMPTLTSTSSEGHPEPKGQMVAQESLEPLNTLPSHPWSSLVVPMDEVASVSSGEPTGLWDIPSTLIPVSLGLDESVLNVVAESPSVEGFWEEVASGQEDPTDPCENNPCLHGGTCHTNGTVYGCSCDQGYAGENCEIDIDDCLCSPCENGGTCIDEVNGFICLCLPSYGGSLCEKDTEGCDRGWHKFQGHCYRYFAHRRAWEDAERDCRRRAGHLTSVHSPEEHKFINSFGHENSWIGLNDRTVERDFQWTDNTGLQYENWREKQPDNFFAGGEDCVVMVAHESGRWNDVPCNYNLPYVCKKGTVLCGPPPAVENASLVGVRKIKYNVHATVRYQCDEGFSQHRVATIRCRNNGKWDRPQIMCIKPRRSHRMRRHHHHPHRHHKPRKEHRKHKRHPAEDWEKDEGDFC

- Kd [1]: ~0.021 µM
- Kd (glypican-2-AP): ~0.01 µM
B1: mouse RPTPσ sEcto-Fc (Fc fusion)
chain: EEPPRFIREPKDQIGVSGGVASFVCQATGDPKPRVTWNKKGKKVNSQRFETIDFDESSGAVLRIQPLRTPRDENVYECVAQNSVGEITIHAKLTVLREDQLPPGFPNIDMGPQLKVVERTRTATMLCAASGNPDPEITWFKDFLPVDPSASNGRIKQLRSGALQIESSEETDQGKYECVATNSAGVRYSSPANLYVRVRRVAPRFSILPMSHEIMPGGNVNITCVAVGSPMPYVKWMQGAEDLTPEDDMPVGRNVLELTDVKDSANYTCVAMSSLGVIEAVAQITVKSLPKAPGTPVVTENTATSITVTWDSGNPDPVSYYVIEYKSKSQDGPYQIKEDITTTRYSIGGLSPNSEYEIWVSAVNSIGQGPPSESVVTRTGEQAPASAPRNVQARMLSATTMIVQWEEPVEPNGLIRGYRVYYTMEPEHPVGNWQKHNVDDSLLTTVGSLLEDETYTVRVLAFTSVGDGPLSDPIQVKTQQGVPGQPMNLRAEAKSETSIGLSWSAPRQESVIKYELLFREGDRGREVGRTFDPTTAFVVEDLKPNTEYAFRLAARSPQGLGAFTAVVRQRTLQAISPKNFKVKMIMKTSVLLSWEFPDNYNSPTPYKIQYNGLTLDVDGRTTKKLITHLKPHTFYNFVLTNRGSSLGGLQQTVTARTAFNMLSGKPSVAPKPDNDGFIVVYLPDGQSPVTVQNYFIVMVPLRKSRGGQFPVLLGSPEDMDLEELIQDISRLQRRSLRHSRQLEVPRPYIAARFSILPAVFHPGNQKQYGGFDNRGLEPGHRYVLFVLAVLQKNEPTFAASPFSDPFQLDNPDPQPIVDGEEG
